Positions count from the first letter of the chain named.
Experiments:
human plasma kallikrein [1] = molecular target: T1, human plasma kallikrein (human, UniProt P03952 20-390; P03952 391-638); assay: ELISA; signal on coated biotinylated human plasma kallikrein divided by signal on streptavidin; Fab
T1 construct: two disulfide-linked chains; also called pKal; human pKal
Source text: Abbreviations used: "T/B" is the ELISA signal obtained using of the target (biotinylated plasma kallikrein) divided by the ELISA signal of the "background" (streptavidin); both of which were coated on microtiter plates. "nd" is not determined. The symbol "q" refers to the amber suppressible stop codon (TAG), which is translated as glutamine (Q) in strains of E. coli such as the TG1 cells that were used to express the Fab fragments.
T1 sequence (P03952 20-390, chain 1 of 2): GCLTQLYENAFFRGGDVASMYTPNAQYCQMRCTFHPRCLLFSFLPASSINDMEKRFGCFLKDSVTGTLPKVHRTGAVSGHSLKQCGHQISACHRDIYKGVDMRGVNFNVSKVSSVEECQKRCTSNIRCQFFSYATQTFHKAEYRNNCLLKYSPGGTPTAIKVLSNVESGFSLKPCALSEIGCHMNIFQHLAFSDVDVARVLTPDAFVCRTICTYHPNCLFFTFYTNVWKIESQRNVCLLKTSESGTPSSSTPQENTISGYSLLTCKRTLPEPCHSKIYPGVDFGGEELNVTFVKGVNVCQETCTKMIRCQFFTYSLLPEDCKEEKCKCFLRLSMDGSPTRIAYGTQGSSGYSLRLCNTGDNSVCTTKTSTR
T1 sequence (P03952 391-638, chain 2 of 2): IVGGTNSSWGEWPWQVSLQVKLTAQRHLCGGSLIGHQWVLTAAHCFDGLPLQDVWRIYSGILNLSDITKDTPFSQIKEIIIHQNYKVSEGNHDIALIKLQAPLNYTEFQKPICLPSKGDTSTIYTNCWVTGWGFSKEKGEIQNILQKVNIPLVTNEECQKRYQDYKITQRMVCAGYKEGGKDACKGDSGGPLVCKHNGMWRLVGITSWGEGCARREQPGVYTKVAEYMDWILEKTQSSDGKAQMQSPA

human plasma kallikrein [2] = molecular target: human plasma kallikrein (human, UniProt P03952 20-390; P03952 391-638); assay: cell-based or functional assay
Target sequence in this assay (P03952 20-390, chain 1 of 2): as the sequence (P03952 20-390, chain 1 of 2) above
Target sequence in this assay (P03952 391-638, chain 2 of 2): as the sequence (P03952 391-638, chain 2 of 2) above

B1: M6-G05 (Fab, V domains shown)
VH: EVQLLESGGGLVQPGGSLRLSCAASGFTFSRYRMVWVRQAPGKGLEWVSSIYPSGGMTAYADSVKGRFTISRDNSKNTLYLQMNSLRAEDTAVYYCARDAVGIGDAFDIWGQGTMVTVSS
VL: DIQMTQSPSSLSASVGDRVTITCRASQSISTYLNWYQLKPGKAPKLLIYNAFSMERGVPSTISGSGSGTDFTLTISSLQPEDFATYYCQQSYTTPTTFGQGTKVEIK
notes: Fab fragment (E. coli TG1); printed HC runs into the start of CH1
Human pKal ELISA (T/B) (human plasma kallikrein [1]): 18.5 T/B (target signal / background signal)

B2: M8-E06 (Fab, V domains shown)
VH: EVQLLESGGGLVQPGGSLRLSCAASGFTFSHYFMTWVRQAPGKGLEWVSSIVPSGGMTQYADSVKGRFTISRDNSKNTLYLQMNSLRAEDTAVYYCARDSYSSSWFDIWGQGTMVTVSS
VL: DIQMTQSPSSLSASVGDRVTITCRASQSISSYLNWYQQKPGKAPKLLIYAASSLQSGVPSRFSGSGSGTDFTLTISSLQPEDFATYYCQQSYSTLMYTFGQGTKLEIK
notes: as for B1
Human pKal ELISA (T/B) (human plasma kallikrein [1]): 8.8 T/B (target signal / background signal)

B3: M8-C04 (Fab, V domains shown)
VH: EVQLLESGGGLVQPGGSLRLSCAASGFTFSYYPMQWVRQAPGKGLEWVSYIYPSGGLTSYADSVKGRFTISRDNSKNTLYLQMNSLRAEDTAVYYCARLFYGSGSVGFEYWGQGTLVTVSS
VL: QSALTQPPSVSVSPGQTASITCSGDKLGDKYTSWHQQKPGQSPVLVIYQDSKRPSGIPERFSGSNSGNTATLTISGTQAMDEADYYCQAWDSSTVFGGGTRLTVL
notes: as for B1
Human pKal ELISA (T/B) (human plasma kallikrein [1]): 44.7 T/B (target signal / background signal)

B4: M206-A06 (Fab, V domains shown)
VH: EVQLLESGGGLVQPGGSLRLSCAASGFTFSNYMMGWVRQAPGKGLQWVSSISPSGGLTKYADSVKGRFTISRDNSKNTLYLQMNSLRAEDTAVYYCARVARGIAARSRTSYFDYWGQGTLVTVSS
VL: DIQMTQSPGTLSLSPGERATLSCRTSQFVNSNYLAWYQQTPGQAPRLLIYGASSRATGIPDRFSGTGYGTDFTLTISRLEPEDYGTYYCQQSSRTPWTFGQGTRVEIK
% inhibition at 10 nM (human plasma kallikrein [2]): 93%

B5: M208-A10 (Fab, V domains shown)
VH: B4 VH with N31H, M33L, G35T, Q46E, S50Y, L57H, K59I, Y111Q, Y114H
VL: B4 VL
% inhibition at 10 nM (human plasma kallikrein [2]): 78.5%

B6: M206-F09 (Fab, V domains shown)
VH: B4 VH with N31V, G35S, Q46E, S52V, L57S, K59T
VL: B4 VL
% inhibition at 10 nM (human plasma kallikrein [2]): 86.8%

B7: M210-H01 (Fab, V domains shown)
VH: B4 VH with N31H, M33L, G35T, Q46E, S50Y, L57H, K59I, T109N, Y111Q, F112Q
VL: B4 VL
% inhibition at 10 nM (human plasma kallikrein [2]): 85.5%

B8: M204-A02 (Fab, V domains shown)
VH: B4 VH with N31D, G35T, S50Y, K59S
VL: B4 VL
% inhibition at 10 nM (human plasma kallikrein [2]): 89.5%

B9: M209-H09 (Fab, V domains shown)
VH: B4 VH with N31H, M33L, G35T, Q46E, S50Y, L57H, K59I, S110V, Y114H
VL: B4 VL
% inhibition at 10 nM (human plasma kallikrein [2]): 85.3%

B10: M209-C02 (Fab, V domains shown)
VH: B4 VH with N31H, M33L, G35T, Q46E, S50Y, L57H, K59I, A105Y, S107R
VL: B4 VL
% inhibition at 10 nM (human plasma kallikrein [2]): 86.8%

B11: M205-B04 (Fab, V domains shown)
VH: B4 VH with M33D, G35I, Q46E, P53S, L57T
VL: B4 VL
% inhibition at 10 nM (human plasma kallikrein [2]): 71.1%

B12: M209-B11 (Fab, V domains shown)
VH: B4 VH with N31H, M33L, G35T, Q46E, S50Y, L57H, K59I, S110R, F112I, Y114Q
VL: B4 VL
% inhibition at 10 nM (human plasma kallikrein [2]): 87.3%

B13: M206-H01 (Fab, V domains shown)
VH: B4 VH with N31E, G35V, Q46E, S50R, L57T, K59E
VL: B4 VL
% inhibition at 10 nM (human plasma kallikrein [2]): 87.6%

B14: M208-G02 (Fab, V domains shown)
VH: B4 VH with N31H, M33L, G35T, Q46E, S50Y, L57H, K59I, A105D, F112S
VL: B4 VL
% inhibition at 10 nM (human plasma kallikrein [2]): 86.7%

B15: M209-H07 (Fab, V domains shown)
VH: B4 VH with N31H, M33L, G35T, Q46E, S50Y, L57H, K59I, S107Q, F112Y
VL: B4 VL
% inhibition at 10 nM (human plasma kallikrein [2]): 76.1%

B16: M209-H03 (Fab, V domains shown)
VH: B4 VH with N31H, M33L, G35T, Q46E, S50Y, L57H, K59I, R101Q, S110T, Y111Q
VL: B4 VL
% inhibition at 10 nM (human plasma kallikrein [2]): 82.6%

B17: M209-G01 (Fab, V domains shown)
VH: EVQLLESGGGLVQPGGSLRLSCAASGFTFSHYLMTWVRQAPGKGLEWVSYISPSGGHTIYADSVKGRFTISRDNSKNTLYLQMNSLRAEDTAVYYCARVAQGISGRSRLSYVDYWGQGTLVTVSS
VL: B4 VL
% inhibition at 10 nM (human plasma kallikrein [2]): 74.8%

B18: M206-H05 (Fab, V domains shown)
VH: B4 VH with N31G, M33K, G35Q, Q46E, L57I, K59M
VL: B4 VL
% inhibition at 10 nM (human plasma kallikrein [2]): 82.5%

B19: M204-E12 (Fab, V domains shown)
VH: B4 VH with N31T, G35Q, Q46E, S50Y, S52G, L57K, K59D
VL: B4 VL
% inhibition at 10 nM (human plasma kallikrein [2]): 84.1%

B20: M209-G07 (Fab, V domains shown)
VH: B17 VH with Q101R, S104A, G105A, L109T, V112F, Y114T
VL: B4 VL
% inhibition at 10 nM (human plasma kallikrein [2]): 89.8%

B21: M205-A02 (Fab, V domains shown)
VH: B4 VH with N31T, M33L, G35A, Q46E, S50G, S52V, P53S, L57R, K59L
VL: B4 VL
% inhibition at 10 nM (human plasma kallikrein [2]): 80.3%

B22: M207-A02 (Fab, V domains shown)
VH: B17 VH with V93L, Q101R, S104A, G105A, L109T, S110I, Y111N, V112L
VL: B4 VL
% inhibition at 10 nM (human plasma kallikrein [2]): 76.6%

B23: M206-E02 (Fab, V domains shown)
VH: B4 VH with N31E, G35M, Q46E, S50V, L57Q, K59H
VL: B4 VL
% inhibition at 10 nM (human plasma kallikrein [2]): 77.6%

B24: M205-C11 (Fab, V domains shown)
VH: B4 VH with N31Q, G35M, Q46E, S50R, L57S, K59L
VL: B4 VL
% inhibition at 10 nM (human plasma kallikrein [2]): 86.5%

B25: M209-D02 (Fab, V domains shown)
VH: B17 VH with Q101R, S104T, G105A, L109T, V112F, Y114D
VL: B4 VL
% inhibition at 10 nM (human plasma kallikrein [2]): 74.7%

B26: M210-A06 (Fab, V domains shown)
VH: B17 VH with Q101R, S104A, G105A, L109T, Y111Q, V112F
VL: B4 VL
% inhibition at 10 nM (human plasma kallikrein [2]): 74.8%

B27: M209-D12 (Fab, V domains shown)
VH: B17 VH with R98T, Q101R, S104A, G105A, L109T, V112F, Y114Q
VL: B4 VL
% inhibition at 10 nM (human plasma kallikrein [2]): 85.4%

B28: M205-H01 (Fab, V domains shown)
VH: B4 VH with M33T, G35Q, S50Y, L57Y, K59G
VL: B4 VL
% inhibition at 10 nM (human plasma kallikrein [2]): 77.1%

B29: M208-B01 (Fab, V domains shown)
VH: B17 VH with Q101R, S104A, G105A, L109T, Y111F, V112F, Y114Q
VL: B4 VL
% inhibition at 10 nM (human plasma kallikrein [2]): 90.1%

B30: M207-A04 (Fab, V domains shown)
VH: B17 VH with Q101R, S104A, G105A, L109T, S110R, Y111S, V112F
VL: B4 VL
% inhibition at 10 nM (human plasma kallikrein [2]): 90.9%

B31: M205-E11 (Fab, V domains shown)
VH: B4 VH with M33T, Q46E, L57K, K59D
VL: B4 VL
% inhibition at 10 nM (human plasma kallikrein [2]): 78.2%

B32: M205-H08 (Fab, V domains shown)
VH: B4 VH with N31D, G35M, Q46E, S52V, L57H, K59Q
VL: B4 VL
% inhibition at 10 nM (human plasma kallikrein [2]): 85.9%

B33: M9-A03 (Fab, V domains shown)
VH: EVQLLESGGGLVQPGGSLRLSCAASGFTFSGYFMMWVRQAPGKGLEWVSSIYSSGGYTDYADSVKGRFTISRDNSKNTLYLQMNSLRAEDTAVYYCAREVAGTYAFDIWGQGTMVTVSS
VL: DIQMTQSPSSLSASLGDRVTITCRASQNIDIYLNWYQQTPGKAPKLLIYGAYNLQSGVPSRFSGSGSGTDFTLTISSLQPEDFGTYYCQQSYGTPVFGQGTKLEIK
notes: as for B1
Human pKal ELISA (T/B) (human plasma kallikrein [1]): 14.4 T/B (target signal / background signal)

B34: M8-D05 (Fab, V domains shown)
VH: EVQLLESGGGLVQPGGSLRLSCAASGFTFSLYNMNWVRQAPGKGLEWVSSISPSGGFTDYADSVKGRFTISRDNSKNTLYLQMNSLRAEDTAVYYCARDLDLGILDYWGQGTLVTVSS
VL: DIQMTQSPSFVSASVGDRVTITCRASQDISSWLVWYQQKPGKGPKLLIYDASNLQSGVPSRFSGGGSGTHFTLTISSLQPEDFATYYCQQADGFPLTFGGGTKVEMK
notes: as for B1
Human pKal ELISA (T/B) (human plasma kallikrein [1]): 11.9 T/B (target signal / background signal)

B35: M6-D08 (Fab, V domains shown)
VH: EVQLLESGGGLVQPGGSLRLSCAASGFTFSRYHMVWVRQAPGKGLEWVSSISPSGGWTNYADSVKGRFTISRDNSKNTLYLQMNSLRAEDTAMYYCAREMATIAGQFDPWGQGTLVTVSS
VL: DIQMTQSPSSLSASVGDRVTITCRASQSISSYLNWYQQKPGKAPKLLIYGASSLQSGVPSRFSGSGSGTDFTLTISSLQPEDSATYYCQQSYTRWTFGQGTKVEIK
notes: Fab fragment (E. coli TG1); printed HC runs into the start of CH1; The LC is printed with an amber codon 'q' (WYqQK), written here as Q
Human pKal ELISA (T/B) (human plasma kallikrein [1]): 16 T/B (target signal / background signal)

B36: M8-H04 (Fab, V domains shown)
VH: EVQLLESGGGLVQPGGSLRLSCAASGFTFSGYWMGWVRQAPGKGLEWVSSISSSGGWTQYADSVKGRFTISRDNSKNTLYLQMNSLRAEDTATYYCARDDEIAAGGAFDIWGQGAMVTVSS
VL: DIQMTQSPSSLSASIGDRVTITCRASQYISTYLNWYEQKPGKAPKLLIYGTSSLQSGVPSRFSGSGSGTEFSLTISSLQPEDFATYYCQQSFTTPFTFGQGTKLEIK
notes: as for B1
Human pKal ELISA (T/B) (human plasma kallikrein [1]): 3.3 T/B (target signal / background signal)

B37: M8-G09 (Fab, V domains shown)
VH: EVQLLESGGGLVQPGGSLRLSCAASGFTFSLYEMLWVRQAPGKGLEWVSVIYPSGGYTDYADSVKGRFTISRDNSKNTLYLQMNSLRAEDMAVYYCARSFSGFGEIDYWGQGTLVTVSS
VL: DIQMTQSPSSLSASVGDTVTITCRASQGVSYYLAWFQQKPGKAPKSLIYGASSLQSGVPSKFSGSGSGTVFTLTISSLQPDDFATYYCQQYNTYPPTFGQGTRLDIK
notes: as for B1
Human pKal ELISA (T/B) (human plasma kallikrein [1]): 28.2 T/B (target signal / background signal)
